Laboratory results taken from patent EP4772193A1 (Teijin Pharma Limited, dated 2026).
Where a chain is given by its changes, count along the chain named. Names and notes keep the numbering of the source. Read-outs that look alike come from different tables or passages of the source. Values belong to the binder of their own block, whether it stands above or below them.

Columns and labels:
[1] = biological target: T1, recombinant human soluble gpNMB (recombinant human gpNMB-FLAG-His) (human, UniProt Q14956 23-498); assay: SPR, antibody over captured gpNMB-FLAG-His, 1:1 model
T1 sequence: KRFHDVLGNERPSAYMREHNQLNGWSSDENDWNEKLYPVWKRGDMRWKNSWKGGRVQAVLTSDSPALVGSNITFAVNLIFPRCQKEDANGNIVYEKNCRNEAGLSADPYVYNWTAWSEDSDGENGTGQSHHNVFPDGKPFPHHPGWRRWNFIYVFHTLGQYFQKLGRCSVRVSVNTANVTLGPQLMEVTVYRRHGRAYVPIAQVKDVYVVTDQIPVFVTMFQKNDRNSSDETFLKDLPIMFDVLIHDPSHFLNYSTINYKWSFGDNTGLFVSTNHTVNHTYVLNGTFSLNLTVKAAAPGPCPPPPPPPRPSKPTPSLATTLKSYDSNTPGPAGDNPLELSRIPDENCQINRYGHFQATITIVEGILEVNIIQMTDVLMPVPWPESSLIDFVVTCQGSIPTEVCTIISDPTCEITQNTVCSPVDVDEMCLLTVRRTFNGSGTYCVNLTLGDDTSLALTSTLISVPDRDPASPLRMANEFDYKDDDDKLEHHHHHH

[2] = biological target: T1, recombinant human soluble gpNMB …; assay: antigen ELISA
[3] = biological target: T1, recombinant human soluble gpNMB …; assay: SPR single-cycle kinetics, antibody over captured gpNMB-FLAG-His, 36C, mean of 2
[4] = biological target: T2, recombinant mouse soluble gpNMB (recombinant mouse gpNMB-FLAG-His) (mouse, UniProt Q99P91 23-502); assay: as above
T2 sequence: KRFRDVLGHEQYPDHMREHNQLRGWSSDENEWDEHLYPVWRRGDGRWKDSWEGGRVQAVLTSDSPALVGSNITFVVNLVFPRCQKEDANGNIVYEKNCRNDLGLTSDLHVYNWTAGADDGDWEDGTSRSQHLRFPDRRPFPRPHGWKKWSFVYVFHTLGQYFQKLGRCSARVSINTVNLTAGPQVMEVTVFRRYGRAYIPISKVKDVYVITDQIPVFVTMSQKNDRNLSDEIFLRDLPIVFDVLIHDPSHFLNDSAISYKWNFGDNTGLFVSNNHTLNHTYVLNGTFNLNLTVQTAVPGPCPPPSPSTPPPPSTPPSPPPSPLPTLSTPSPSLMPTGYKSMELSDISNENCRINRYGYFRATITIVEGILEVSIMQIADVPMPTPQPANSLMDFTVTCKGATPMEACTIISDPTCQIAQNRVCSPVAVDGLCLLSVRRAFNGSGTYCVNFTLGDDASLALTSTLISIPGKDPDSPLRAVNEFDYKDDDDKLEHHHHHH

[5] = biological target: T3, human gpNMB (Human Osteoactivin, His-tag, AcroBioSystems) (human, UniProt Q14956-2 23-486, limits assumed); assay: SPR Biacore 8K, antibody captured on protein A, gpNMB as analyte
T3 sequence (looked up): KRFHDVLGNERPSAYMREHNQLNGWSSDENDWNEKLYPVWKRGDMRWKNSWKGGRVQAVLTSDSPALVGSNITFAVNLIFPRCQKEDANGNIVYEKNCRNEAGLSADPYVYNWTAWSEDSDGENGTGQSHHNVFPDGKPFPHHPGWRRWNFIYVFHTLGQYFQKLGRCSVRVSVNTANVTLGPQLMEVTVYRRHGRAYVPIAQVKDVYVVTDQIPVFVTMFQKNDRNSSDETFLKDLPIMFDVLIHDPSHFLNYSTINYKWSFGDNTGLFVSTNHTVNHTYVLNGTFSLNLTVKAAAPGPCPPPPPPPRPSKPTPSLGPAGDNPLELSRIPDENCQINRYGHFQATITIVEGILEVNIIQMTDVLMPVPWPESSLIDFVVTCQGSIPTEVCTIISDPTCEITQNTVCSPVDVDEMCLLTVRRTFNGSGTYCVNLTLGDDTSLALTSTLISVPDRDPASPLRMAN

[6] = biological target: T1, recombinant human soluble gpNMB …; assay: antigen ELISA; remark: listed apart in the source
[7] = biological target: T1, recombinant human soluble gpNMB …; assay: antigen ELISA, vs hGPN06-1_H1L1
[8] = biological target: T1, recombinant human soluble gpNMB …; assay: antigen ELISA, vs hGPN18-2_H2L3
[9] = biological target: T1, recombinant human soluble gpNMB …; assay: SPR, antibody 100 nM over captured gpNMB-FLAG-His, 36C
[10] = biological target: T1, recombinant human soluble gpNMB …; assay: antigen ELISA; remark: listed apart in the source
[11] = biological target: T1, recombinant human soluble gpNMB …; assay: antigen ELISA; remark: listed apart in the source
[12] = biological target: T1, recombinant human soluble gpNMB …; assay: antigen ELISA; remark: listed apart in the source
[13] = biological target: T1, recombinant human soluble gpNMB …; assay: antigen ELISA, vs hGPN18-2_H2L3; remark: listed apart in the source
[14] = biological target: T1, recombinant human soluble gpNMB …; assay: antigen ELISA, vs hGPN18-2_H2L3; remark: listed apart in the source
[15] = biological target: T1, recombinant human soluble gpNMB …; assay: antigen ELISA; remark: listed apart in the source

B1: hGPN06-1_H0L0 (antibody, V domains shown)
VH: QVQLQQPGAEIVRPGASVKLSCKASGYTFTDNWMGWVKQRPGQGLEWIGAIDPSDSFTNYNQNFKGKATLTVDTSSSTAYMQLSSLTSEDSAVYFCTRSGYYGSPKLGGDYWGQGTTLTVSS
VL: QIVLTQSPAIMSASLGEEITLTCSASSSISYMHWYQQKSGTSPKLLIYSTSNLASGVPSRFSGSGSGTFYSLTISSVEAEDAADYYCHQWNSYPCTFGGGTKLEIK
notes: human chimeric antibody: mouse GPN06-1 variable regions (VH0, VL0); also called human chimeric antibody of GPN06-1
Kd [1]: 0.265 nM | koff [1]: 0.000209 s⁻¹ | kon [1]: 789000 M⁻¹ s⁻¹ | EC50 [2]: 0.383 nM

B2: hGPN18-5_H3L1 (antibody, V domains shown)
VH: QVQLVQSGAEVKKPGASVKVSCKASGYTFTTYWMNWVRQAPGQGLEWIGAINPSNDYTEYNQKFKDRAIMTADKSTSTVYMELSSLRSEDTAVYYCGRSYSPDYWGQGTTVTVSS
VL: DIQMTQSPSSLSASVGDRVTITCKASQNVDNHVAWFQQKPGKAPKALIYSASYRYSGVPSRFSGSGSGTDFTLTISSLQPEDFATYFCQQYKSYPFTFGGGTKLEIK
notes: humanized; also called hGPN18-5 VH3+VL1
Kd [3]: 11.3 nM | koff [3]: 0.00138 s⁻¹ | kon [3]: 142000 M⁻¹ s⁻¹ | Kd [4]: 17.8 nM | koff [4]: 0.000862 s⁻¹ | kon [4]: 52900 M⁻¹ s⁻¹ | Kd [5]: 711 nM | koff [5]: 0.00484 s⁻¹ | kon [5]: 6810 M⁻¹ s⁻¹

B5: hGPN06-1_H1L1 VH T97A (antibody, V domains shown)
VH: QVQLVQSGAEVKKPGASVKVSCKASGYTFTDNWMGWVKQRPGQGLEWIGAIDPSDSFTNYNQNFKGRVTMTVDTSISTAYMELSRLRSDDSAVYFCARSGYYGSPKLGGDYWGQGTLVTVSS
VL: EIVLTQSPSSLSASVGDRVTITCSASSSISYMHWYQQKSGTAPKLLIYSTSNLASGVPSRFSGSGSGTDFTFTISSLQPEDAATYYCHQWNSYPCTFGGGTKLEIK
EC50 [6]: 0.36 nM | Relative binding activity [7]: 0.98

B7: hGPN06-1_H1L1 VH Y102A (antibody, V domains shown)
VH: B5 VH with A97T, Y102A
VL: B5 VL
EC50 [6]: 2.21 nM | Relative binding activity [7]: 0.68

B8: hGPN06-1_H1L1 VH Y101A (antibody, V domains shown)
VH: B5 VH with A97T, Y101A
VL: B5 VL
EC50 [6]: 0.502 nM | Relative binding activity [7]: 1.04

Continued, values first:

Kd [3]: 16.2 nM | koff [3]: 0.00307 s⁻¹ | kon [3]: 308000 M⁻¹ s⁻¹ | Kd [4]: 21.9 nM | koff [4]: 0.00143 s⁻¹ | kon [4]: 73800 M⁻¹ s⁻¹ | Kd [5]: 651 nM | koff [5]: 0.00432 s⁻¹ | kon [5]: 6640 M⁻¹ s⁻¹
B3: hGPN18-5_H1L1 (antibody, V domains shown)
VH: B2 VH with A68V, I69T, K74T
VL: B2 VL
notes: humanized; also called hGPN18-5_VH1+VL1

Kd [3]: 6.98 nM | koff [3]: 0.00121 s⁻¹ | kon [3]: 176000 M⁻¹ s⁻¹ | Kd [4]: 6.39 nM | koff [4]: 0.000711 s⁻¹ | kon [4]: 111000 M⁻¹ s⁻¹ | Kd [5]: 352 nM | koff [5]: 0.00201 s⁻¹ | kon [5]: 5720 M⁻¹ s⁻¹
B4: hGPN18-5_H3L3 (antibody, V domains shown)
VH: B2 VH
VL: B2 VL with F36H, S60D, S63T, T85D
notes: humanized; also called hGPN18-5_VH3+VL3

EC50 [6]: 0.584 nM | Relative binding activity [7]: 0.99
B6: hGPN06-1_H1L1 VH Y111A (antibody, V domains shown)
VH: B5 VH with A97T, Y111A
VL: B5 VL

Kd [3]: 3.08 nM | koff [3]: 0.000727 s⁻¹ | kon [3]: 237000 M⁻¹ s⁻¹ | Kd [4]: 5.31 nM | koff [4]: 0.00075 s⁻¹ | kon [4]: 142000 M⁻¹ s⁻¹ | Kd [5]: 237 nM | koff [5]: 0.002 s⁻¹ | kon [5]: 8440 M⁻¹ s⁻¹
B9: hGPN18-5_H0L0 (antibody, V domains shown)
VH: QVQLQQSGAELAKPGTSVKMSCKASGYTFTTYWMNWVKQRPGQDLEWIGAINPSNDYTEYNQKFKDKAILTADKSSNTAYMQLSSLTSEDSAVYYCGRSYSPDYWGQGTTLTVSS
VL: DIVMTQSQKFMSTSVGDRVSVTCKASQNVDNHVAWHQQKPGQSPKALIYSASYRYSGVPDRFTGSGSGTDFTLTIRDVQSEDLADYFCQQYKSYPFTFGSGTELEIK
notes: chimeric antibody with mouse GPN18-5 variable regions (VH0, VL0); also called hGPN18-5_VH0+VL0; HGPN18-5_VH0+VL0

Relative binding activity [8]: 1 | Kd [9]: 0.00778 nM | koff [9]: 7.49e-07 s⁻¹ | kon [9]: 96200 M⁻¹ s⁻¹ | EC50 [10]: 4.39 nM | EC50 [11]: 4.39 nM | EC50 [12]: 4.39 nM | Relative binding activity [13]: 1 | Relative binding activity [14]: 1 | EC50 [15]: 1.84 nM
B10: hGPN18-2_H2L3 (antibody, V domains shown)
VH: QVQLVQSGPGLVQPTQTLTLTCSFSGFSLSTSVMGVGWIRQPSGKGLEWLADIWWDDDKDYNPSLKSRLTISKDTSKNQVVLTMTNMDTVDTATYYCARTYYSNYEYYGMDYWGQGTLVTVSS
VL: DIVMTQSPDSLAVSLGERATINCRSSQTIILSNGNTYLEWYQQKPGQPPKLLIYKVSNRFSGVPDRFSGSGSGTDFTLTISSLQAEDVAVYYCFQGSHVPFTFGSGTKLEIKR
notes: humanized; also called humanized anti-gpNMB antibody H2L3

Kd [9]: 0.00346 nM | koff [9]: 4.71e-07 s⁻¹ | kon [9]: 141000 M⁻¹ s⁻¹ | EC50 [15]: 1.21 nM
B11: hGPN18-2_H0L0 (antibody, V domains shown)
VH: QVTLKESGPGILQPSQTLSLTCSFSGFSLSTSVMGVGWIRQPSGKGLEWLADIWWDDDKDYNPSLKSRLTISKDTSKNQVFLKIASVDTADTATYYCARTYYSNYEYYGMDYWGQGTSVTVSS
VL: DVLMTQTPLSLPVSLGDQASISCRSSQTIILSNGNTYLEWYLQKPGQSPKLLIYKVSNRFSGVPDRFSGSGSGTDFTLKISRVEAEDLGVYYCFQGSHVPFTFGSGTKLEIK
notes: human chimeric antibody: mouse GPN18-2 variable regions; also called human chimeric antibody of GPN18-2
